These results are taken from patent publication US20040014638A1 (RIGEL PHARMACEUTICALS, published 2004).

Ends that are not written are not given here.

Test [1] concerns the target T1, human CLLD8 protein (human, UniProt Q96T68 1-719, limits assumed).
T1 sequence: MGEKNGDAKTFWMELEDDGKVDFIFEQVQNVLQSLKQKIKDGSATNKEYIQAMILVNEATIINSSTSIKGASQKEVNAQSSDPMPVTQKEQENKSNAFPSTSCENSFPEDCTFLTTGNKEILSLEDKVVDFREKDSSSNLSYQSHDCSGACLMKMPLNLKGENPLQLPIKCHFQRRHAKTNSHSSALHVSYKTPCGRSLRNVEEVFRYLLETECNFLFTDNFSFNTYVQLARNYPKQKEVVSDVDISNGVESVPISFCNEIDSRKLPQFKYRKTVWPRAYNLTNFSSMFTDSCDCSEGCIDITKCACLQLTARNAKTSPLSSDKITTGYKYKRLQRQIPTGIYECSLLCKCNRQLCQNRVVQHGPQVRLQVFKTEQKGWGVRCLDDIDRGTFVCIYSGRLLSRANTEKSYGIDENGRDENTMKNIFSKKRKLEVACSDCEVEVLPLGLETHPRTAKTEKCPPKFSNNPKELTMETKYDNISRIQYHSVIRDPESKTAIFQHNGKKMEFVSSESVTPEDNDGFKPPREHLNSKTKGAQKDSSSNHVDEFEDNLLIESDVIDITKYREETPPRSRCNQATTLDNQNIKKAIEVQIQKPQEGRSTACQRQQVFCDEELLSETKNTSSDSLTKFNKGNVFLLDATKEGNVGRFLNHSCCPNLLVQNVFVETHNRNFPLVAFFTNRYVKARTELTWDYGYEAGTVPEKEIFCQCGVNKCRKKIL
The experiment in a line: cell-based or functional assay.

The target in test [2] is T1, human CLLD8 protein. Description: cell-based or functional assay. The source holds these as a separate data set.

For the molecule AMHGHHGWPWGMEQGCTPLG (also: expressed as BFP-peptide fusion via alpha-helical linker, bait in pGBKT7) [peptide CL02A3 wt], in the test with human CLLD8 protein [1], the “endogenous ε inhibition ratio (TAQMAN quantitative PCR of ε transcription product, +IL-4/+Dox to +IL-4/-Dox)” value worked out at 2.82 and the “reporter ratio (original clone screen, +IL-4/+Dox over +IL-4/-Dox GFP fluorescence)” value is 1.55. Besides, in the test with human CLLD8 protein [2], the “reporter ratio (GFP under germline ε promoter, A5T4 reporter line)” value came out at 1.62. As to AMHGHHGWPWGMEQGCTPAA [peptide CL02A3LG], in the test with human CLLD8 protein [2], the “reporter ratio (GFP under germline ε promoter, A5T4 reporter line)” value is 1.99. As for RAHGHHGWPWGMEQGCTPLG [peptide CL02A3AM], the “reporter ratio (GFP under germline ε promoter, A5T4 reporter line)” value with human CLLD8 protein [2] is 1.03. Still for that read-out and setting: the value for AMHGHHAAPWGMEQGCTPLG [peptide CL02A3GW] was 1.16.
